Measured values reported in patent US20090098103A1.

target: Human Recombinant TFPI (R&D Systems) (human) (UniProt P10646); assay: SPR (Biacore T100), TFPI on CM5 chip, 320 nM FVIIa + 620 nM sTF; BHK-21 cells
Sequence of UniProt P10646 (P10646 29-282): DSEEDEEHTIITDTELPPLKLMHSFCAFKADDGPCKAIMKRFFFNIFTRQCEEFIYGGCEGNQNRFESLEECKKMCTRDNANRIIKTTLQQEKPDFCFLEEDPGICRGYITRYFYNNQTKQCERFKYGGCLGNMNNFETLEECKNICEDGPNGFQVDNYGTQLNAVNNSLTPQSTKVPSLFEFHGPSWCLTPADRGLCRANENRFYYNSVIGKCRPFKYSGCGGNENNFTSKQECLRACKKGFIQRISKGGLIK

Row | Binding (wt/variant) | Dissociation (wt/variant) | Substance
1 | 1 | 1 | wild-type Factor VII polypeptide (CB553-02), activated (FVIIa) (from UniProt P08709 61-466) (enzyme)
2 | 1.3 | 1.1 | FVIIa variant CB864 K197I198insE (from UniProt P08709 61-466) (enzyme)
3 | 22.8 | 154 | FVIIa variant CB856 G237T238insAS (from UniProt P08709 61-466) (enzyme)
4 | 6.5 | 18.2 | FVIIa variant CB853 G237T238insA (from UniProt P08709 61-466) (enzyme)
5 | 1 | 1 | FVIIa variant CB593 V158D/E296V/M298Q (from UniProt P08709 61-466) (enzyme)
6 | 1.1 | 1 | FVIIa variant CB865 K197I198insY (from UniProt P08709 61-466) (enzyme)
7 | 5.2 |  | FVIIa variant CB854 G237T238insS (from UniProt P08709 61-466) (enzyme)
8 | 0.5 | 0.4 | FVIIa variant CB862 D196K197insA (from UniProt P08709 61-466) (enzyme)
9 | 21.5 | 146 | FVIIa variant CB857 G237T238insSA (from UniProt P08709 61-466) (enzyme)
10 | 7.3 | 16.8 | FVIIa variant CB855 G237T238insV (from UniProt P08709 61-466) (enzyme)
11 | 0.7 | 0.6 | FVIIa variant CB867 K197I198insS (from UniProt P08709 61-466) (enzyme)
12 | 0.4 | 0.4 | FVIIa variant CB863 D196K197insM (from UniProt P08709 61-466) (enzyme)
13 | 1 | 0.8 | FVIIa variant CB858 D196K197insK (from UniProt P08709 61-466) (enzyme)
14 | 0.5 | 0.5 | FVIIa variant CB859 D196K197insR (from UniProt P08709 61-466) (enzyme)

target: Human Recombinant TFPI (R&D Systems) (human) (UniProt P10646); assay: SPR (Biacore T100), TFPI on CM5 chip, 320 nM FVIIa + 620 nM sTF; 293-F cells

Row | Binding (wt/variant) | Dissociation (wt/variant) | Substance
15 | 1 | 1 | wild-type Factor VII polypeptide (CB553-02), activated (FVIIa) (from UniProt P08709 61-466) (enzyme)
16 | 2.6 | 2.7 | FVIIa variant CB701 R290V (from UniProt P08709 61-466) (enzyme)
17 | 0.7 | 0.7 | FVIIa variant CB699 R290K (from UniProt P08709 61-466) (enzyme)
18 | 1.6 | 1.5 | FVIIa variant CB697 R290N (from UniProt P08709 61-466) (enzyme)
19 |  | 19.7 | FVIIa variant CB609 K341Q (from UniProt P08709 61-466) (enzyme)
20 | 15.9 | 21.5 | FVIIa variant CB692 K197E/G237V/M298Q/K341Q (from UniProt P08709 61-466) (enzyme)
21 | 1.9 | 1.8 | FVIIa variant CB592 M298Q (from UniProt P08709 61-466) (enzyme)
22 | 1.4 | 1.4 | FVIIa variant CB563 K199E (from UniProt P08709 61-466) (enzyme)
23 | 0.8 | 0.8 | FVIIa variant CB593 V158D/E296V/M298Q (from UniProt P08709 61-466) (enzyme)
24 | 0.9 | 0.8 | FVIIa variant CB695 G237V/M298Q (from UniProt P08709 61-466) (enzyme)
25 | 18.8 | 30.7 | FVIIa variant CB694 K199E/K341Q (from UniProt P08709 61-466) (enzyme)
26 | 23.4 | 43.5 | FVIIa variant CB693 K197E/K199E/G237V/M298Q/K341Q (from UniProt P08709 61-466) (enzyme)
27 | 18.9 | 21.8 | FVIIa variant CB671 K197E/G237V/K341Q (from UniProt P08709 61-466) (enzyme)
28 | 11.3 | 63.8 | FVIIa variant CB733 K341N (from UniProt P08709 61-466) (enzyme)
29 | 2.2 | 1.8 | FVIIa variant CB608 G237V (from UniProt P08709 61-466) (enzyme)
30 | 2.2 | 2.1 | FVIIa variant CB688 K197E/K199E (from UniProt P08709 61-466) (enzyme)
31 | 1.4 | 1.3 | FVIIa variant CB558 K197E (from UniProt P08709 61-466) (enzyme)
32 | 1.8 | 1.6 | FVIIa variant CB689 K197E/G237V (from UniProt P08709 61-466) (enzyme)
33 | 147 | 196 | FVIIa variant CB945 M298Q/K341D (from UniProt P08709 61-466) (enzyme)
34 | 4.5 | 6 | FVIIa variant CB696 G237V/M298Q/K341Q (from UniProt P08709 61-466) (enzyme)
35 | 12.8 | 12.4 | FVIIa variant CB670 G237V/K341Q (from UniProt P08709 61-466) (enzyme)
36 | 1.1 | 1.1 | FVIIa variant CB700 R290M (from UniProt P08709 61-466) (enzyme)
37 | 1.3 | 1.2 | FVIIa variant CB698 R290Q (from UniProt P08709 61-466) (enzyme)
38 | 2.6 | 2.3 | FVIIa variant CB902 K197E/M298Q (from UniProt P08709 61-466) (enzyme)
39 | 186 | 381 | FVIIa variant CB735 K341D (from UniProt P08709 61-466) (enzyme)
40 | 4.9 | 5.4 | FVIIa variant CB734 K341M (from UniProt P08709 61-466) (enzyme)
41 | 67.2 | 171 | FVIIa variant CB637 K197E/K341Q (from UniProt P08709 61-466) (enzyme)
42 | 33.9 | 68.1 | FVIIa variant CB691 K197E/K199E/K341Q (from UniProt P08709 61-466) (enzyme)
